# According to PMC3589475, “Large-Scale Functional Purification of Recombinant HIV-1 Capsid” (PLoS ONE, 2013):
# Legend:
# [1] = target: HIV-1 capsid (CA) (Human immunodeficiency virus 1) (UniProt O93182); conditions: cited from earlier work
# [2] = target: quadruple mutant (A14C/E45C/W184A/M185A) CA monomer (CA 4Mu) (HIV-1 (NL4-3 strain)); assay: AUC; sedimentation velocity, cross-linked CA 4Mu hexamer at 4.13, 8.25 and 16.5 µM (as monomers), 50 mM sodium phosphate pH 7.5, 25°C, 45,000 rpm, no reducing agent
# [3] = target: wild-type HIV-1 capsid protein (WT CA) (HIV-1 (pLAI.2)) (UniProt P03348); assay: AUC; sedimentation velocity, WT CA at 0.94, 1.88, 3.75 and 7.5 µM, 50 mM sodium phosphate pH 7.5, 25°C, 45,000 rpm; monomer to dimer, at high protein concentration
substance,measurement,setting,value
HIV-1 capsid (CA) (from UniProt O93182),Kd,[1],14 µM
quadruple mutant (A14C/E45C/W184A/M185A) CA monomer (CA 4Mu) (natural protein),percent in hexameric form,[2],94%
same,stoichiometry N,[2],6
wild-type HIV-1 capsid protein (WT CA) (from UniProt P03348 133-363) (natural protein),stoichiometry N,[3],2
